B1: Septin-4 (Homo sapiens), O43236-6 (parent)
chain: MIKRFLEDTTDDGELSKFVKDFSGNASCHPPEAKTWASRPQVPEPRPQAPDLYDDDLEFRPPSRPQSSDNQQYFCAPAPLSPSARPRSPWGKLDPYDSSEDDKEYVGFATLPNQVHRKSVKKGFDFTLMVAGESGLGKSTLVNSLFLTDLYRDRKLLGAEERIMQTVEITKHAVDIEEKGVRLRLTIVDTPGFGDAVNNTECWKPVAEYIDQQFEQYFRDESGLNRKNIQDNRVHCCLYFISPFGHGYGPSLRLLAPPGAVKGTGQEHQGQGCH
partner: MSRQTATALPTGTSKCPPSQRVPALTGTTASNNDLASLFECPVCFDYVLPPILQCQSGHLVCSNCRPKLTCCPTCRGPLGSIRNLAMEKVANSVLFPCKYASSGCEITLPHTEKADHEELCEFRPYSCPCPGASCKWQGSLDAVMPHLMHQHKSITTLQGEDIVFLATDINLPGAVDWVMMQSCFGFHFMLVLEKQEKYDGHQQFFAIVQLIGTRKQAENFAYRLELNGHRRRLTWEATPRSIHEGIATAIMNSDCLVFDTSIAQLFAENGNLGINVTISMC

Experimental findings from IntAct's records for PubMed 21185211 are described below.

In this assay the parent is B1. The note with it: with siah1_human SIAH1, Q8IUQ4.
Take MIKRFLEDTTDDGELSKFVKDFSGNASCHPPEAKTWASRAQAPAPAPQAPDLYDDDLEFRPPSRPQSSDNQQYFCAPAPLSPSARPRSPWGKLDPYDSSEDDKEYVGFATLPNQVHRKSVKKGFDFTLMVAGESGLGKSTLVNSLFLTDLYRDRKLLGAEERIMQTVEITKHAVDIEEKGVRLRLTIVDTPGFGDAVNNTECWKPVAEYIDQQFEQYFRDESGLNRKNIQDNRVHCCLYFISPFGHGYGPSLRLLAPPGAVKGTGQEHQGQGCH [P40A;V42A;E44A;R46A]: the “effect of a mutation on the interaction” value is recorded as “disrupting interaction”.
The result for MIKRFLEDTTDDGELSKFVKDFSGNASCHPPEAKTWASRPQAPAPAPQAPDLYDDDLEFRPPSRPQSSDNQQYFCAPAPLSPSARPRSPWGKLDPYDSSEDDKEYVGFATLPNQVHRKSVKKGFDFTLMVAGESGLGKSTLVNSLFLTDLYRDRKLLGAEERIMQTVEITKHAVDIEEKGVRLRLTIVDTPGFGDAVNNTECWKPVAEYIDQQFEQYFRDESGLNRKNIQDNRVHCCLYFISPFGHGYGPSLRLLAPPGAVKGTGQEHQGQGCH [V42A;E44A;R46A] reads “disrupting interaction”.
